Measured values from patent US12534534 (F STAR BETA, dated 2026).

What was measured:
[1] = target: T1, hCD137-mFc-Avi (human, UniProt Q07011 24-186); test: SPR, antigens immobilised on CM5 chip, mAb^2 at 1 µM and 1 nM, binding level at end of association
T1 construct: dimer; also called human CD137-mFc-Avi; human CD137-mFc
Method: CD137 belongs to the tumour necrosis factor receptor superfamily (TNFRSF) of cytokine receptors (Moran et al., 2013). To analyse the specificity of the anti-CD137 Fab binding site of the five mAb² molecules, binding of the mAb² to human CD137 and five closely-related human TNFRSF members (TNFRSF1A, TNFRSF1B, GITR, NGFR and CD40) was tested using SPR.
(§1) Flow cell 1 was run as a blank immobilisation. The five FS20-22-49AA/FS30 mAb² were diluted to 1 μM and 1 nM in 1×HBS-EP buffer (GE Healthcare, product code BR100188), allowed to flow over the chip for 3 min and then allowed to dissociate for 4 minutes. A 30-second injection of 10 mM glycine pH 1.5 was used for regeneration. […] Binding levels were determined at the end of the association phase and compared.

[2] = target: human CD137 on DO11.10-hCD137 cells (human, UniProt Q07011 24-255); test: cell-based or functional assay
[3] = target: T2, GITR-hFc-Avi (human, UniProt Q9Y5U5 26-161); test: SPR, antigen immobilised on CM5 chip
T2 construct: in-house produced; not shown: hFc and Avi part
T2 sequence: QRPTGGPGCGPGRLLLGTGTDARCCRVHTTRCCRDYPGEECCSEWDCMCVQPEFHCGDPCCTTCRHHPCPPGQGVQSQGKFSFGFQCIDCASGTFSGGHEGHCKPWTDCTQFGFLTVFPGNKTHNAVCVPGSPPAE
Method: as §1
(§2) Specificity was tested against the same five human TNFRSF members closely-related to CD137 (TNFRSF1A, TNFRSF1B, GITR, NGFR and CD40) plus an additional closely-related TNFRSF member, human DR6 (DR6-Fc; R&D Systems, 144-DR-100), using SPR as described in Example 3.1.

[4] = target: T3, TNFRSF1A-Fc (human, UniProt P19438 30-211, limits assumed); test: SPR, antigen immobilised on CM5 chip
T3 construct: bought; also called TNFRSF1A (R&D Systems, 372-RI-050/CF); not shown: Fc part of the bought fusion
T3 sequence (looked up): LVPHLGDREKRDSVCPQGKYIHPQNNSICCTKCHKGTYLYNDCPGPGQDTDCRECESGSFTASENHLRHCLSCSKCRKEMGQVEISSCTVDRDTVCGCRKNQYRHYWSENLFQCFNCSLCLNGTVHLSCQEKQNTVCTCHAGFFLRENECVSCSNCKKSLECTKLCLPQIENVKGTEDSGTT
Method: as §1, §2

[5] = target: T4, CD40-mFc (human, UniProt P25942 21-193); test: SPR, antigen immobilised on CM5 chip
T4 construct: in-house produced; not shown: mFc part
Method: as §1, §2

[6] = target: T5, NGFR-Fc (human, UniProt P08138 29-250); test: SPR, antigen immobilised on CM5 chip
T5 construct: bought; also called NGFR (R&D Systems, 367-NR-050/CF); not shown: Fc part of the bought fusion
T5 sequence (looked up): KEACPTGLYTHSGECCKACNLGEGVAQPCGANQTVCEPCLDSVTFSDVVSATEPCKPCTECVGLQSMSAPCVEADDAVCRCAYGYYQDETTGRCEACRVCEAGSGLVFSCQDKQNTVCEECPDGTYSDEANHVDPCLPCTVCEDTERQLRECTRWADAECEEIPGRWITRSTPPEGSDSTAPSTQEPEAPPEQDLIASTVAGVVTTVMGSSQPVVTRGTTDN
Method: as §1, §2

[7] = target: T6, TNFRSF1B-Fc (human, UniProt P20333 23-257); test: SPR, antigen immobilised on CM5 chip
T6 construct: bought; also called TNFRSF1B (R&D Systems, 726-R2-050); not shown: Fc part of the bought fusion
T6 sequence (looked up): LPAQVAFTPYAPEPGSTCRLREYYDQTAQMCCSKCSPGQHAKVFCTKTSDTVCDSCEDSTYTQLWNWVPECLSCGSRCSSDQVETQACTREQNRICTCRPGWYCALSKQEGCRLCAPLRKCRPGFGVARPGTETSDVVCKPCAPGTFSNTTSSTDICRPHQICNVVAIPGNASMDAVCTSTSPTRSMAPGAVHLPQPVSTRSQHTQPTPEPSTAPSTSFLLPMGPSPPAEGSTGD
Method: as §1, §2

[8] = target: T1, hCD137-mFc-Avi; test: ELISA, hCD137-mFc-Avi coated, 100 nM antibody, competitor CD137L-His; normalised to G1/11D4 = 0 and G1/MOR7480.1 = 100; mean of n=2
Method: The following day, plates were washed with PBST (PBS+0.05% Tween20™) and blocked with PBS+1% BSA (Sigma, A3059-500G) for 1 hour at room temperature with agitation. After blocking, the plates were washed again with PBST. A 100 nM dilution of each test antibody was prepared in PBS+1% BSA and added to the CD137-coated plates and incubated for 1 hour at room temperature with agitation. […] The plates were then washed with PBST and then incubated with anti-his secondary antibody (R&D Systems, MAB050H) at a 1 in 1000 dilution in PBS for 1 hour at room temperature with agitation. The plates were then washed with PBST and incubated with TMB detection reagent (Thermo Fisher Scientific, 002023) until the positive control wells turned blue and then the reaction was stopped with the addition of 2N H_2SO_4. Plates were read at 450 nm using the plate reader with Gen5 Software, BioTek. Absorbance values of 630 nm were subtracted from those of 450 nm (Correction). The subtracted absorbance values were plotted vs the log concentration of antibody and the resulting curves were fitted using the log (inhibitor) vs response equation in GraphPad Prism.

[9] = target: T1, hCD137-mFc-Avi; test: cell-based, 100 nM hCD137-mFc-Avi with 200 nM antibody, competitor human CD137L on DO11.10 cells, GMFI normalised to G1/11D4 = 0 and G1/MOR7480.1 = 100; mean of n=2
Method: The cells were washed once in PBS and 100 μl/well of secondary antibody (anti-mouse Fc-488 antibody, Jackson Immuno Research, 115-546-008) diluted 1:1000 in PBS containing 2% BSA was then added and incubated for 30 mins at 4° C. in the dark. The cells were washed once with PBS and resuspended in 100 μl of PBS containing DAPI (Biotium, 40043) at 1 μg/ml. The cells were analysed using a Canto II flow cytometer (BD Bioscience). Dead cells were excluded and the fluorescence in the FITC channel (488 nm/530/30) was measured. […] The data was analysed using a one-way ANOVA test and Tukey's multiple comparisons test using GraphPad Prism.

| Binder | fold specificity for CD137 over TNFRSF1A, TNFRSF1B, GITR, NGFR and CD40 [1] [fold] | DO11.10-hCD137 T cell activation assay EC50 (nM), crosslinked [2] [nM] | further results |
| --- | --- | --- | --- |
| FS20-22-49AA/FS30-10 (bispecific antibody, human IgG1, kappa, L234A L235A, V domains shown, also called FS30-10 in mAb^2 format) VH: EVQLLESGGGLVQPGGSLRLSCAASGFTFSSYDMSWVRQAPGKGLEWVSDIDPTGSKTDYADSVKGRFTISRDNSKNTLYLQMNSLRAEDTAVYYCARDLMVYGFDYWGQGTLVTVSS VL: EIVLTQSPGTLSLSPGERATLSCRASQSVSSSYLAWYQQKPGQAPRLLIYGASSRATGIPDRFSGSGSGTDFTLTISRLEPEDFAVYYCQQSYSYPVTFGQGTKVEIKR | ~1000 | 10.2 |  |
| FS20-22-49AA/FS30-15 (bispecific antibody, human IgG1, kappa, L234A L235A, V domains shown, also called FS30-15 in mAb^2 format) VH: EVQLLESGGGLVQPGGSLRLSCAASGFTFSGSGMSWVRQAPGKGLEWVSIIYSTNGDTDYADSVKGRFTISRDNSKNTLYLQMNSLRAEDTAVYYCARDFYDIANYYAFDYWGQGTLVTVSS VL: EIVLTQSPGTLSLSPGERATLSCRASQSVSSSYLAWYQQKPGQAPRLLIYGASSRATGIPDRFSGSGSGTDFTLTISRLEPEDFAVYYCQQAYYDPITFGQGTKVEIKR |  |  | binding result [3]: binds; binding result [4]: binds; binding result [5]: binds; binding result [6]: binds; binding result [7]: binds |
| FS20-22-49AA/4420 (bispecific antibody, human IgG1, kappa, L234A L235A, V domains shown, anti-OX40 Fcab FS20-22-49AA with the Fab of anti-FITC antibody 4420; IgG1 LALA; also called negative control mAb^2) VH: EVKLDETGGGLVQPGRPMKLSCVASGFTFSDYWMNWVRQSPEKGLEWVAQIRNKPYNYETYYSDSVKGRFTISRDDSKSSVYLQMNNLRVEDMGIYYCTGSYYGMDYWGQGTSVTVSS VL: DVVMTQTPLSLPVSLGDQASISCRSSQSLVHSNGNTYLRWYLQKPGQSPKVLIYKVSNRFSGVPDRFSGSGSGTDFTLKISRVEAEDLGVYFCSQSTHVPWTFGGGTKLEIKR |  |  | % CD137 ligand blocking activity [8]: -0.3%; % CD137 ligand blocking activity [9]: 2% |
| FS20-22-49AA/FS30-5 (bispecific antibody, human IgG1, kappa, L234A L235A, V domains shown, also called FS30-5 in mAb^2 format) VH: EVQLLESGGGLVQPGGSLRLNCAASGFTFSSYAMSWVRQAPGKGLEWVSAISGSGGSTYYADSVKGRFTISRDNSKNTLYLQMNSLRAEDTAVYYCARSYDKYWGSSMYSGMDYWGQGTLVTVSS VL: EIVLTQSPGTLSLSPGERATLSCRASQSVSSSYLAWYQQKPGQAPRLLIYGASSRATGIPDRFSGSGSGTDFTLTISRLEPEDFAVYYCQQYYSYYPVTFGQGTKVEIKR | ~1000 | 4.8 |  |
| FS20-22-49AA/FS30-35 (bispecific antibody, human IgG1, kappa, L234A L235A, V domains shown, also called FS30-35 in mAb^2 format) VH: EVQLLESGGGLVQPGGSLRLSCAASGFTFSAYNIHWVRQAPGKGLEWVSDISPYGGATNYADSVKGRFTISRDNSKNTLYLQMNSLRAEDTAVYYCARNLYELSAYSYGMDYWGQGTLVTVSS VL: EIVLTQSPGTLSLSPGERATLSCRASQSVSSSYLAWYQQKPGQAPRLLIYGASSRATGIPDRFSGSGSGTDFTLTISRLEPEDFAVYYCQQYYYSSPITFGQGTKVEIKR | ~1000 | 5.5 |  |
| FS20-22-49AA/FS30-16 (bispecific antibody, human IgG1, kappa, L234A L235A, V domains shown, also called FS30-16 in mAb^2 format) VH: EVQLLESGGGLVQPGGSLRLSCAASGFTFSNYAMHWVRQAPGKGLEWVSTIDPTDGATNYADSVKGRFTISRDNSKNTLYLQMNSLRAEDTAVYYCARSKYYTYMQYVALDYWGQGTLVTVSS VL: EIVLTQSPGTLSLSPGERATLSCRASQSVSSSYLAWYQQKPGQAPRLLIYGASSRATGIPDRFSGSGSGTDFTLTISRLEPEDFAVYYCQQGSRFFPITFGQGTKVEIKR | ~1000 |  |  |
